# Measured values as given in the supplement of paper PMC10065799, “High-throughput profiling of sequence recognition by tyrosine kinases and SH2 domains using bacterial peptide display” (eLife, 2023).
# How the values were obtained:
# c-Src SH2 = assay: SH2 binding enrichment of the phosphorylated peptide, bacterial display (enrichment ratio); higher = better substrate or ligand; peptides without Tyr show the background
# Grb2 SH2 = Grb2 SH2 (UniProt P62993); assay: as above
# SHP2-C SH2 = assay: as above
# MERTK = MERTK (UniProt Q12866); assay: phosphorylation enrichment, bacterial display (enrichment ratio); higher = better substrate or ligand; peptides without Tyr show the background
# Chain of MERTK (Q12866 whole entry, looked up): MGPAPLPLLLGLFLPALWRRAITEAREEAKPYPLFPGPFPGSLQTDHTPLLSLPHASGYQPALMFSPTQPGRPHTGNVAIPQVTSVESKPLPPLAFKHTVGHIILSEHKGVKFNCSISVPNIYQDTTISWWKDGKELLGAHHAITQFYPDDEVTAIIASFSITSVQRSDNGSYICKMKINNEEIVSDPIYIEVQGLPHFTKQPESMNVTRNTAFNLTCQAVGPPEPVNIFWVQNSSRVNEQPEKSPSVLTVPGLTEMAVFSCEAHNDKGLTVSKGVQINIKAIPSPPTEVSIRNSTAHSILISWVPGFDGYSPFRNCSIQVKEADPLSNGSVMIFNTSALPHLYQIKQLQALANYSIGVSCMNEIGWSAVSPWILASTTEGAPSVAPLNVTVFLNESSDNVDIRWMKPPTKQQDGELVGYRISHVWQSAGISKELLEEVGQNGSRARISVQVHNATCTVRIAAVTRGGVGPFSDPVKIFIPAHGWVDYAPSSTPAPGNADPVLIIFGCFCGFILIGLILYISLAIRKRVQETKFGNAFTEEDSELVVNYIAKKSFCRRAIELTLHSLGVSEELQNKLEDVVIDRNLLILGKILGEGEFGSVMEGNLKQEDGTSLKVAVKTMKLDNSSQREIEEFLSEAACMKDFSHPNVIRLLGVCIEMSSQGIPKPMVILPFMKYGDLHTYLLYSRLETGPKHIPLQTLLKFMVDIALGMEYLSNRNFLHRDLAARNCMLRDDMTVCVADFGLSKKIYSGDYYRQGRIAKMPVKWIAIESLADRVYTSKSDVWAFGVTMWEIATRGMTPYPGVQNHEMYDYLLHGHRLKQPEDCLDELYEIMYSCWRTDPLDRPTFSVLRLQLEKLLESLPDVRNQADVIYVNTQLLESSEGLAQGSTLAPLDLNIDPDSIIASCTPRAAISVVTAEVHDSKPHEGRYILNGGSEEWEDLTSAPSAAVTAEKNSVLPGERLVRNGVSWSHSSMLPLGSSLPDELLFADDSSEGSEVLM
# Hck = Hck (UniProt P08631); assay: as above
# Chain of Hck (P08631 whole entry, looked up): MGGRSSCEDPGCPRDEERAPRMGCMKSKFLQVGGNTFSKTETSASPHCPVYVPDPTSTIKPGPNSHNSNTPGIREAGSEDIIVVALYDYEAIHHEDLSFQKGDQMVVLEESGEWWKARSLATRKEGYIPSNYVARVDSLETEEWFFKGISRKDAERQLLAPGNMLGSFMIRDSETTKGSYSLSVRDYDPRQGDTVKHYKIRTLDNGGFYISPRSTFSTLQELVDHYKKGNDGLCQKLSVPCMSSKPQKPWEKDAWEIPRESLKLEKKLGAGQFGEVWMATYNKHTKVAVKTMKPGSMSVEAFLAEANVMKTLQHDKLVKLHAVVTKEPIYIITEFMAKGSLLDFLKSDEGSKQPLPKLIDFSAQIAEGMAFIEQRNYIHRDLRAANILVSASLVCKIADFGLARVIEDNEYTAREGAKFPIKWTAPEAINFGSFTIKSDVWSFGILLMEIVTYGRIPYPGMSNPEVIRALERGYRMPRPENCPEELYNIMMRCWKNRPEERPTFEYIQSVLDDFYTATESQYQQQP
# AncSZ = assay: as above
# EPHB2 = EPHB2 (UniProt P29323); assay: as above
# c-Abl (mouse) = assay: as above
# Fyn = Fyn (UniProt P06241); assay: as above
# Chain of Fyn (P06241 whole entry, looked up): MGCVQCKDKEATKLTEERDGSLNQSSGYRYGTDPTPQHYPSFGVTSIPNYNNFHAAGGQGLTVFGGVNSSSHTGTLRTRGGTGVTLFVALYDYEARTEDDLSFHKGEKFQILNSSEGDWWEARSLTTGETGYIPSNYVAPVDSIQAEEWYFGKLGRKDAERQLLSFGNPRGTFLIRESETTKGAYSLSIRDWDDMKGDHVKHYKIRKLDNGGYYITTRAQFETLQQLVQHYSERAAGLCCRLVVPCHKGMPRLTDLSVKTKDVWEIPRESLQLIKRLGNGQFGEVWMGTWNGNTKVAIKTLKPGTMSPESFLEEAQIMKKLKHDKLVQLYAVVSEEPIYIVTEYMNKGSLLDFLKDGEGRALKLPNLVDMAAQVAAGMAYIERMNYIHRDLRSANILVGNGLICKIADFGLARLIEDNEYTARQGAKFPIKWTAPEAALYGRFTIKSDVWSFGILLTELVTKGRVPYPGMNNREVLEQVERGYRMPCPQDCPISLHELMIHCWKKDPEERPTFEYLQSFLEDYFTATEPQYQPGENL
# c-Src = assay: as above
# Jak2 = Jak2 (UniProt O60674); assay: as above
# Chain of Jak2 (O60674 whole entry, looked up): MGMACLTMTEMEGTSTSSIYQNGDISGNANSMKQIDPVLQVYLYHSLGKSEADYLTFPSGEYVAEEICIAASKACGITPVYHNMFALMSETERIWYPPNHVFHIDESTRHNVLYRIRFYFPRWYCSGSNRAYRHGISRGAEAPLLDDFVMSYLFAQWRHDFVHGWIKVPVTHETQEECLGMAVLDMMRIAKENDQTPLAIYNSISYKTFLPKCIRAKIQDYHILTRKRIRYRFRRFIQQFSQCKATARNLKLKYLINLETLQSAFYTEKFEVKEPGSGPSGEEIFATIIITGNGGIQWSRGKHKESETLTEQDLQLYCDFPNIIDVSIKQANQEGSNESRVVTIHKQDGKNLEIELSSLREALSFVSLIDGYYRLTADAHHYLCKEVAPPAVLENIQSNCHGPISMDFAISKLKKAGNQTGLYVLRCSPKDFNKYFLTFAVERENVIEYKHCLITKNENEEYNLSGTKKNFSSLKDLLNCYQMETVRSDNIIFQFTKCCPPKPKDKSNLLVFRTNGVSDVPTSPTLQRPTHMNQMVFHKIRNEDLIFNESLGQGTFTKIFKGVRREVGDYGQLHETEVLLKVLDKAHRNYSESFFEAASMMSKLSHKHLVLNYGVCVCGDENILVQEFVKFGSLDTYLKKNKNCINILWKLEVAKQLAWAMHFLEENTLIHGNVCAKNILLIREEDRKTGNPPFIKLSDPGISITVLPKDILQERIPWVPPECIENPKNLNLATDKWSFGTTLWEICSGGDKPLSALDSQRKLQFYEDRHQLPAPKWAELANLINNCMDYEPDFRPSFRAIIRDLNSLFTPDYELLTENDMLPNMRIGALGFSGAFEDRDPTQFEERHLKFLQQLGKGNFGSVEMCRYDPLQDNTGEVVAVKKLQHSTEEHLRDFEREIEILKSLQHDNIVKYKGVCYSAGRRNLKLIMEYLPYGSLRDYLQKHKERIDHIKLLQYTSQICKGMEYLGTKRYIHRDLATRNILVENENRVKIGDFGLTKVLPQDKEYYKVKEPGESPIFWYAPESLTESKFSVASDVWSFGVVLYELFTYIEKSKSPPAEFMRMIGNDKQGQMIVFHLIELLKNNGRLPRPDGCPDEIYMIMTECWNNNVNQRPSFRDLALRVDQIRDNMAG
# EPHB1 = EPHB1 (UniProt P54762); assay: as above
# FGFR3 = FGFR3 (UniProt P22607); assay: as above
# FGFR1 = FGFR1 (UniProt P11362); assay: as above
# Chain of FGFR1 (P11362 whole entry, looked up): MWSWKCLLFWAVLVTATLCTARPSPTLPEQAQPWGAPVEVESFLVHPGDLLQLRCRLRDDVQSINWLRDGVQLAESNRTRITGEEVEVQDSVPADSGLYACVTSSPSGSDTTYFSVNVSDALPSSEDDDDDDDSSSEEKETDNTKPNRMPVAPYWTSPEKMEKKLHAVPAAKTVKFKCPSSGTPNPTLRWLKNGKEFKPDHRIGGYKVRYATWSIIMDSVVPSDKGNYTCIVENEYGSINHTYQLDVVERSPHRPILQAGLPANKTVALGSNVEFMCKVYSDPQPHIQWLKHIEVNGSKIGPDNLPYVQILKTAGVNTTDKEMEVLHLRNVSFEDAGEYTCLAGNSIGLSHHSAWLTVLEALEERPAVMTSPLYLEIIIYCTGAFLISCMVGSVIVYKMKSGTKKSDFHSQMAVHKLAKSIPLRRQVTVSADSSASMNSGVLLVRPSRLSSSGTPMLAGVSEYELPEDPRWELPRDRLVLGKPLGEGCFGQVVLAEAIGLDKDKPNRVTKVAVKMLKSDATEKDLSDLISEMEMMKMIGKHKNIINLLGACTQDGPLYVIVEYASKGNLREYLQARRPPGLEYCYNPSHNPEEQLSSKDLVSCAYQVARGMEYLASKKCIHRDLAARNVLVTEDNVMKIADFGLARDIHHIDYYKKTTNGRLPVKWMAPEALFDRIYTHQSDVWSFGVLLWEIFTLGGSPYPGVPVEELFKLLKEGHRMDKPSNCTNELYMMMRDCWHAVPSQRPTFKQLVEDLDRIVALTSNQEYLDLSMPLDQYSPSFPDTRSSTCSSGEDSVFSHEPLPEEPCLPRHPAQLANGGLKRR
# Fes = Fes (UniProt P07332); assay: as above
# Chain of Fes (P07332 whole entry, looked up): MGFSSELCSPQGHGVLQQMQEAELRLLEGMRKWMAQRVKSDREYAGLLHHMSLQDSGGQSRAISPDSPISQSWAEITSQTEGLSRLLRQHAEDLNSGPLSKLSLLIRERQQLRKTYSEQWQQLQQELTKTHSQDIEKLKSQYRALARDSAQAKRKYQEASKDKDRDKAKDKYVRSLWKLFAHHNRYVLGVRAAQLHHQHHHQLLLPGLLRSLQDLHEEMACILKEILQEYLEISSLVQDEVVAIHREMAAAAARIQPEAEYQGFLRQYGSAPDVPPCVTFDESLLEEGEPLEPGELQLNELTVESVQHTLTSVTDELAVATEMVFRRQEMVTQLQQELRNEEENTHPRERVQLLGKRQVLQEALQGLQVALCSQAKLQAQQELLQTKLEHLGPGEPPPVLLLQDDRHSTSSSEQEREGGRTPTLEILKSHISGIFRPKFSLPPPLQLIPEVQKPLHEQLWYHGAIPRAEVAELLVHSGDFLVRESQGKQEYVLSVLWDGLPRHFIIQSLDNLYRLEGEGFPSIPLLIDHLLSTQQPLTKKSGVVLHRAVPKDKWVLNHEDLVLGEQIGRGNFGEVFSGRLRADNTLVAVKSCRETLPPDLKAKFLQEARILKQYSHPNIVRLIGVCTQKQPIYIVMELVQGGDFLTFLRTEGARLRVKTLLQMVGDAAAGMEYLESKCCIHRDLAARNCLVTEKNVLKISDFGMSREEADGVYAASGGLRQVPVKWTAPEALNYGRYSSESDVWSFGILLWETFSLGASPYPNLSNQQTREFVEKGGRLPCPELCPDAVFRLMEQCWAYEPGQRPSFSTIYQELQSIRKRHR
# Fer (mouse) = assay: as above
# 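For SH2 binding enrichment of the phosphorylated peptide, bacterial display in this document: peptide library displayed on the E. coli surface as eCPX fusions, selected cells deep-sequenced, score is each peptide's frequency after selection divided by its frequency in the input.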
# 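For phosphorylation enrichment, bacterial display in this document: 11-residue human phosphosite peptides and single-mutation variants displayed on the E. coli surface, counted by deep sequencing, each peptide's frequency after selection divided by its frequency in the unselected input library; frequency after pTyr selection over input frequency; kinase dosed for 20-30% of maximal phosphorylation in three min.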
# Chain of Grb2 SH2 (P62993 whole entry, looked up): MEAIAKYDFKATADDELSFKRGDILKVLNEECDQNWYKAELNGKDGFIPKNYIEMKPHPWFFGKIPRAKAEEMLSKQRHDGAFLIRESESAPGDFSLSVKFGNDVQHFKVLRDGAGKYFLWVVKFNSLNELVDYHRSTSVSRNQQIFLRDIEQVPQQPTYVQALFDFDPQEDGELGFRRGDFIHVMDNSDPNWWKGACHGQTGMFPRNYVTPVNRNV
sequence,measurement,setting,value
TKYVAYIESQG [KDM4B_Y34_N29T],SH2 binding enrichment,c-Src SH2,0.675
same,SH2 binding enrichment,Grb2 SH2,0.8
same,SH2 binding enrichment,SHP2-C SH2,8.32
same,phosphorylation enrichment,MERTK,0.331
same,phosphorylation enrichment,Hck,0.485
same,phosphorylation enrichment,AncSZ,0.924
same,phosphorylation enrichment,EPHB2,0.611
same,phosphorylation enrichment,c-Abl (mouse),0.508
same,phosphorylation enrichment,Fyn,0.546
same,phosphorylation enrichment,c-Src,0.418
same,phosphorylation enrichment,Jak2,0.498
same,phosphorylation enrichment,EPHB1,0.456
same,phosphorylation enrichment,FGFR3,0.608
same,phosphorylation enrichment,FGFR1,0.541
same,phosphorylation enrichment,Fes,0.828
same,phosphorylation enrichment,Fer (mouse),0.432
NVTGHYIPPFH [PPA2_Y59_S61P],SH2 binding enrichment,c-Src SH2,0.538
same,SH2 binding enrichment,Grb2 SH2,0.779
same,SH2 binding enrichment,SHP2-C SH2,0.994
same,phosphorylation enrichment,MERTK,0.659
same,phosphorylation enrichment,Hck,0.418
same,phosphorylation enrichment,AncSZ,0.518
same,phosphorylation enrichment,EPHB2,0.393
same,phosphorylation enrichment,c-Abl (mouse),0.735
same,phosphorylation enrichment,Fyn,0.445
same,phosphorylation enrichment,c-Src,0.443
same,phosphorylation enrichment,Jak2,0.498
same,phosphorylation enrichment,EPHB1,0.455
same,phosphorylation enrichment,FGFR3,0.463
same,phosphorylation enrichment,FGFR1,0.396
same,phosphorylation enrichment,Fes,0.679
same,phosphorylation enrichment,Fer (mouse),0.395
NGSKGYAFVHF [PABPC5_Y147_YF],SH2 binding enrichment,c-Src SH2,3.1
same,SH2 binding enrichment,Grb2 SH2,1.09
same,SH2 binding enrichment,SHP2-C SH2,25.9
same,phosphorylation enrichment,MERTK,0.444
same,phosphorylation enrichment,Hck,0.445
same,phosphorylation enrichment,AncSZ,0.879
same,phosphorylation enrichment,EPHB2,0.606
same,phosphorylation enrichment,c-Abl (mouse),0.755
same,phosphorylation enrichment,Fyn,0.469
same,phosphorylation enrichment,c-Src,0.407
same,phosphorylation enrichment,Jak2,0.825
same,phosphorylation enrichment,EPHB1,0.481
same,phosphorylation enrichment,FGFR3,0.611
same,phosphorylation enrichment,FGFR1,0.5
same,phosphorylation enrichment,Fes,0.875
same,phosphorylation enrichment,Fer (mouse),0.478
GSRGKYSSGFH [ATM_Y332_R337H],SH2 binding enrichment,c-Src SH2,0.905
same,SH2 binding enrichment,Grb2 SH2,1.04
same,SH2 binding enrichment,SHP2-C SH2,0.649
same,phosphorylation enrichment,MERTK,0.452
same,phosphorylation enrichment,Hck,0.391
same,phosphorylation enrichment,AncSZ,0.464
same,phosphorylation enrichment,EPHB2,0.3
same,phosphorylation enrichment,c-Abl (mouse),0.579
same,phosphorylation enrichment,Fyn,0.421
same,phosphorylation enrichment,c-Src,0.45
same,phosphorylation enrichment,Jak2,0.439
same,phosphorylation enrichment,EPHB1,0.417
same,phosphorylation enrichment,FGFR3,0.605
same,phosphorylation enrichment,FGFR1,0.452
same,phosphorylation enrichment,Fes,0.535
same,phosphorylation enrichment,Fer (mouse),0.409
VDTRAYFTSAT [MT-CO1_Y304],SH2 binding enrichment,c-Src SH2,0.693
same,SH2 binding enrichment,Grb2 SH2,1.01
same,SH2 binding enrichment,SHP2-C SH2,0.678
same,phosphorylation enrichment,MERTK,0.366
same,phosphorylation enrichment,Hck,0.479
same,phosphorylation enrichment,AncSZ,0.61
same,phosphorylation enrichment,EPHB2,0.361
same,phosphorylation enrichment,c-Abl (mouse),0.382
same,phosphorylation enrichment,Fyn,0.39
same,phosphorylation enrichment,c-Src,0.38
same,phosphorylation enrichment,Jak2,0.525
same,phosphorylation enrichment,EPHB1,0.37
same,phosphorylation enrichment,FGFR3,0.459
same,phosphorylation enrichment,FGFR1,0.397
same,phosphorylation enrichment,Fes,0.687
same,phosphorylation enrichment,Fer (mouse),0.256
ASELGYVFQAI [UROD_Y133],SH2 binding enrichment,c-Src SH2,0.771
same,SH2 binding enrichment,Grb2 SH2,0.986
same,SH2 binding enrichment,SHP2-C SH2,0.475
same,phosphorylation enrichment,MERTK,0.264
same,phosphorylation enrichment,Hck,0.378
same,phosphorylation enrichment,AncSZ,1.03
same,phosphorylation enrichment,EPHB2,0.566
same,phosphorylation enrichment,c-Abl (mouse),0.545
same,phosphorylation enrichment,Fyn,0.397
same,phosphorylation enrichment,c-Src,0.423
same,phosphorylation enrichment,Jak2,0.924
same,phosphorylation enrichment,EPHB1,0.471
same,phosphorylation enrichment,FGFR3,0.749
same,phosphorylation enrichment,FGFR1,0.483
same,phosphorylation enrichment,Fes,0.852
same,phosphorylation enrichment,Fer (mouse),0.386
PVQAAYRKVVA [HBB_Y131_Q132R],SH2 binding enrichment,c-Src SH2,0.493
same,SH2 binding enrichment,Grb2 SH2,0.859
same,SH2 binding enrichment,SHP2-C SH2,0.597
same,phosphorylation enrichment,MERTK,0.348
same,phosphorylation enrichment,Hck,0.543
same,phosphorylation enrichment,AncSZ,0.502
same,phosphorylation enrichment,EPHB2,0.237
same,phosphorylation enrichment,c-Abl (mouse),0.48
same,phosphorylation enrichment,Fyn,0.407
same,phosphorylation enrichment,c-Src,0.421
same,phosphorylation enrichment,Jak2,0.336
same,phosphorylation enrichment,EPHB1,0.199
same,phosphorylation enrichment,FGFR3,0.373
same,phosphorylation enrichment,FGFR1,0.367
same,phosphorylation enrichment,Fes,0.505
same,phosphorylation enrichment,Fer (mouse),0.339
MDDKEYYSVHN [MET_Y1234_Y1230D],SH2 binding enrichment,c-Src SH2,0.557
same,SH2 binding enrichment,Grb2 SH2,0.952
same,SH2 binding enrichment,SHP2-C SH2,0.759
same,phosphorylation enrichment,MERTK,0.373
same,phosphorylation enrichment,Hck,0.619
same,phosphorylation enrichment,AncSZ,1.99
same,phosphorylation enrichment,EPHB2,0.62
same,phosphorylation enrichment,c-Abl (mouse),0.747
same,phosphorylation enrichment,Fyn,0.575
same,phosphorylation enrichment,c-Src,0.695
same,phosphorylation enrichment,Jak2,1.03
same,phosphorylation enrichment,EPHB1,0.613
same,phosphorylation enrichment,FGFR3,1.88
same,phosphorylation enrichment,FGFR1,2.06
same,phosphorylation enrichment,Fes,1.06
same,phosphorylation enrichment,Fer (mouse),0.54
DVCKKYAEAKD [ALB_Y343_N342K],SH2 binding enrichment,c-Src SH2,0.562
same,SH2 binding enrichment,Grb2 SH2,0.757
same,SH2 binding enrichment,SHP2-C SH2,0.431
same,phosphorylation enrichment,MERTK,0.402
same,phosphorylation enrichment,Hck,0.659
same,phosphorylation enrichment,AncSZ,1.24
same,phosphorylation enrichment,EPHB2,0.646
same,phosphorylation enrichment,c-Abl (mouse),0.775
same,phosphorylation enrichment,Fyn,0.639
same,phosphorylation enrichment,c-Src,0.53
same,phosphorylation enrichment,Jak2,0.897
same,phosphorylation enrichment,EPHB1,0.72
same,phosphorylation enrichment,FGFR3,0.821
same,phosphorylation enrichment,FGFR1,0.627
same,phosphorylation enrichment,Fes,1.23
same,phosphorylation enrichment,Fer (mouse),0.546
GFAIVYGTIIL [GPR179_Y460],SH2 binding enrichment,c-Src SH2,0.364
same,SH2 binding enrichment,Grb2 SH2,0.604
same,SH2 binding enrichment,SHP2-C SH2,0.547
same,phosphorylation enrichment,MERTK,0.389
same,phosphorylation enrichment,Hck,0.502
same,phosphorylation enrichment,AncSZ,1.19
same,phosphorylation enrichment,EPHB2,0.592
same,phosphorylation enrichment,c-Abl (mouse),1.31
same,phosphorylation enrichment,Fyn,0.431
same,phosphorylation enrichment,c-Src,0.462
same,phosphorylation enrichment,Jak2,1.28
same,phosphorylation enrichment,EPHB1,0.644
same,phosphorylation enrichment,FGFR3,0.84
same,phosphorylation enrichment,FGFR1,0.441
same,phosphorylation enrichment,Fes,1.32
same,phosphorylation enrichment,Fer (mouse),0.514
HNLPIYEGFAL [ACTA1_Y168_V165L_YF],SH2 binding enrichment,c-Src SH2,0.579
same,SH2 binding enrichment,Grb2 SH2,0.837
same,SH2 binding enrichment,SHP2-C SH2,0.721
same,phosphorylation enrichment,MERTK,12.6
same,phosphorylation enrichment,Hck,12.8
same,phosphorylation enrichment,AncSZ,1.86
same,phosphorylation enrichment,EPHB2,24.3
same,phosphorylation enrichment,c-Abl (mouse),14
same,phosphorylation enrichment,Fyn,14.1
same,phosphorylation enrichment,c-Src,9.44
same,phosphorylation enrichment,Jak2,0.996
same,phosphorylation enrichment,EPHB1,17.5
same,phosphorylation enrichment,FGFR3,1.13
same,phosphorylation enrichment,FGFR1,0.677
same,phosphorylation enrichment,Fes,2.8
same,phosphorylation enrichment,Fer (mouse),21.9
WNEVGYDDIGG [VCP_Y203_L198W],SH2 binding enrichment,c-Src SH2,9.33
same,SH2 binding enrichment,Grb2 SH2,0.973
same,SH2 binding enrichment,SHP2-C SH2,0.566
same,phosphorylation enrichment,MERTK,0.406
same,phosphorylation enrichment,Hck,0.538
same,phosphorylation enrichment,AncSZ,1.07
same,phosphorylation enrichment,EPHB2,0.515
same,phosphorylation enrichment,c-Abl (mouse),0.737
same,phosphorylation enrichment,Fyn,0.422
same,phosphorylation enrichment,c-Src,0.502
same,phosphorylation enrichment,Jak2,1.14
same,phosphorylation enrichment,EPHB1,0.608
same,phosphorylation enrichment,FGFR3,0.724
same,phosphorylation enrichment,FGFR1,0.557
same,phosphorylation enrichment,Fes,1.27
same,phosphorylation enrichment,Fer (mouse),0.53
HYECKYVINAI [MAOA_Y268],SH2 binding enrichment,c-Src SH2,0.59
same,SH2 binding enrichment,Grb2 SH2,0.735
same,SH2 binding enrichment,SHP2-C SH2,0.634
same,phosphorylation enrichment,MERTK,0.66
same,phosphorylation enrichment,Hck,0.657
same,phosphorylation enrichment,AncSZ,1.38
same,phosphorylation enrichment,EPHB2,0.788
same,phosphorylation enrichment,c-Abl (mouse),0.86
same,phosphorylation enrichment,Fyn,0.507
same,phosphorylation enrichment,c-Src,0.859
same,phosphorylation enrichment,Jak2,0.95
same,phosphorylation enrichment,EPHB1,0.841
same,phosphorylation enrichment,FGFR3,0.957
same,phosphorylation enrichment,FGFR1,0.557
same,phosphorylation enrichment,Fes,1.61
same,phosphorylation enrichment,Fer (mouse),0.506
NSFKFYMSDDI [ATRX_Y204_C200S_YF],SH2 binding enrichment,c-Src SH2,0.604
same,SH2 binding enrichment,Grb2 SH2,0.982
same,SH2 binding enrichment,SHP2-C SH2,0.79
same,phosphorylation enrichment,MERTK,0.497
same,phosphorylation enrichment,Hck,0.54
same,phosphorylation enrichment,AncSZ,1.14
same,phosphorylation enrichment,EPHB2,0.552
same,phosphorylation enrichment,c-Abl (mouse),0.657
same,phosphorylation enrichment,Fyn,0.517
same,phosphorylation enrichment,c-Src,0.574
same,phosphorylation enrichment,Jak2,1.12
same,phosphorylation enrichment,EPHB1,0.56
same,phosphorylation enrichment,FGFR3,0.693
same,phosphorylation enrichment,FGFR1,0.53
same,phosphorylation enrichment,Fes,1.28
same,phosphorylation enrichment,Fer (mouse),0.488
DSLASYLDKVR [KRT10_Y160_R156S],SH2 binding enrichment,c-Src SH2,0.579
same,SH2 binding enrichment,Grb2 SH2,0.867
same,SH2 binding enrichment,SHP2-C SH2,0.772
same,phosphorylation enrichment,MERTK,0.46
same,phosphorylation enrichment,Hck,0.469
same,phosphorylation enrichment,AncSZ,0.701
same,phosphorylation enrichment,EPHB2,0.4
same,phosphorylation enrichment,c-Abl (mouse),0.629
same,phosphorylation enrichment,Fyn,0.448
same,phosphorylation enrichment,c-Src,0.46
same,phosphorylation enrichment,Jak2,0.682
same,phosphorylation enrichment,EPHB1,0.491
same,phosphorylation enrichment,FGFR3,0.558
same,phosphorylation enrichment,FGFR1,0.5
same,phosphorylation enrichment,Fes,0.78
same,phosphorylation enrichment,Fer (mouse),0.416
PDSVDYPKKGF [CTSK_Y121_R122P_YF],SH2 binding enrichment,c-Src SH2,0.531
same,SH2 binding enrichment,Grb2 SH2,0.872
same,SH2 binding enrichment,SHP2-C SH2,0.486
same,phosphorylation enrichment,MERTK,1.31
same,phosphorylation enrichment,Hck,1.15
same,phosphorylation enrichment,AncSZ,1.75
same,phosphorylation enrichment,EPHB2,1.13
same,phosphorylation enrichment,c-Abl (mouse),2.12
same,phosphorylation enrichment,Fyn,1.17
same,phosphorylation enrichment,c-Src,1.52
same,phosphorylation enrichment,Jak2,1.97
same,phosphorylation enrichment,EPHB1,1.48
same,phosphorylation enrichment,FGFR3,1.05
same,phosphorylation enrichment,FGFR1,1.12
same,phosphorylation enrichment,Fes,1.78
same,phosphorylation enrichment,Fer (mouse),1.52
TSFQMYDKGLV [IARS2_Y231_F227S_YF],SH2 binding enrichment,c-Src SH2,0.315
same,SH2 binding enrichment,Grb2 SH2,0.547
same,SH2 binding enrichment,SHP2-C SH2,0.538
same,phosphorylation enrichment,MERTK,0.438
same,phosphorylation enrichment,Hck,0.934
same,phosphorylation enrichment,AncSZ,0.925
same,phosphorylation enrichment,EPHB2,0.746
same,phosphorylation enrichment,c-Abl (mouse),0.473
same,phosphorylation enrichment,Fyn,0.649
same,phosphorylation enrichment,c-Src,0.475
same,phosphorylation enrichment,Jak2,1.03
same,phosphorylation enrichment,EPHB1,0.596
same,phosphorylation enrichment,FGFR3,0.82
same,phosphorylation enrichment,FGFR1,0.651
same,phosphorylation enrichment,Fes,0.846
same,phosphorylation enrichment,Fer (mouse),0.877
